Measured values as given in the RNAGym collection of RNA variant scans (doi:10.1093/molbev/msab373).

B1: Azoarcus group I ribozyme (parent)
chain: GUGCCUUGCGCCGGGAAACCACGCAAGGGAUGGUGUCAAAUUCGGCGAAACCUAAGCGCCCGCCCGGGCGUAUGGCAACGCCGAGCCAAGCUUCGGCGCCUGCGCCGAUGAAGGUGUAGAGACUAGACGGCACCCACCUAAGGCAAACGCUAUGGUGAAGGCAUAGUCCAGGGAGUGGCGAAAGUCACACAAACCGG

Variants of: B1
Experiment: reverse-splicing fitness (ratio to wild type); higher = more active; in vitro selection; Mg2+ level not given
How it was run: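 An in vitro group I ribozyme library with randomized positions was T7-transcribed and gel-purified. In triplicate, 10 pmol RNA in EPPS pH 7.5 was reacted with 50 pmoles of a 30-nt RNA substrate for 1 h at 37 °C across several added MgCl2 levels (1–48 mM), then stopped with EDTA. Products were reverse transcribed from a substrate-complementary primer, PCR-amplified and sequenced (HiSeq 4000). Fitness is a variant's read proportion after selection over that before, normalised to wild type.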

Compared with C82U A111C A120G A145U C169G U176C, C82U A111C A120G A145U C169G U176A is lower in reverse-splicing fitness: 0.0109 for the first, 0.00938 for the second.

Compared with C82U A111C A120G A145U C169G U176G, C82U A111C A120G A145C C169G U176G is higher in reverse-splicing fitness: 0.00395 for the first, 0.00397 for the second.

Compared with C82U A111C A120G A145C C169G U176C, C82U A111C A120G A145C C169G U176A is higher in reverse-splicing fitness: 0.0122 for the first, 0.0216 for the second.

Going from C82U A111C A120G A145G C169A U176G to C82U A111C A120G A145G C169A U176A, the reverse-splicing fitness rises from 0.00456 to 0.0193.

Compared with C82U A111C A120G A145G C169A U176C, C82U A111C A120G A145C C150G C169U is lower in reverse-splicing fitness: 0.0272 for the first, 0.00662 for the second.

Going from C82U A111C A120G A145C C150G C169A to C82U A111C A120G A145C C150G C169G, the reverse-splicing fitness falls from 0.00748 to 0.00642.

Going from C82U A111C A120C C150U C169U U176A to C82U A111C A120C C150U C169U U176G, the reverse-splicing fitness falls from 0.0178 to 0.00584.

Going from C82U A111C A120C C150U C169U U176C to C82U A111C A120G C150G C169G, the reverse-splicing fitness falls from 0.0196 to 0.00667.

Going from C82U A111C A120G C150G C169A to C82U A111C A120G C150G C169U, the reverse-splicing fitness falls from 0.00813 to 0.00766.

Compared with C82U A111C A120G A145U C150U C169A U176G, C82U A111C A120G A145U C150U C169A U176C is higher in reverse-splicing fitness: 0.00451 for the first, 0.00758 for the second.

First: C82U A111C A120G A145U C150U C169A U176A
Second: C82U A111C A120C C150U C169G U176C
The reverse-splicing fitness of the first is lower: 0.0111 for the first, 0.0153 for the second.

Compared with C82U A111C A120C C150U C169G U176A, C82U A111C A120C C150U C169G U176G is lower in reverse-splicing fitness: 0.0121 for the first, 0.00553 for the second.

Going from C82U A111C A120G A145U C150U U176A to C82U A111C A120G A145U C150U U176G, the reverse-splicing fitness falls from 0.013 to 0.00357.

Compared with C82U A111C A120G A145U C150U U176C, C82U A111C A120G A145C C150U C169G U176G is lower in reverse-splicing fitness: 0.0178 for the first, 0.00492 for the second.

First: C82U A111C A120G A145C C150U C169G U176A
Second: C82U A111C A120G A145C C150U C169G U176C
The reverse-splicing fitness of the first is higher: 0.0181 for the first, 0.0105 for the second.

Going from C82U A111C A120C C150G C169G U176C to C82U A111C A120C C150G C169G U176A, the reverse-splicing fitness rises from 0.0068 to 0.00777.

Compared with C82U A111C A120C C150G C169G U176G, C82U A111C A120G A145U C169G is higher in reverse-splicing fitness: 0.00547 for the first, 0.00905 for the second.

Going from C82U A111C A120G A145U C169U to C82U A111C A120G A145U C169A, the reverse-splicing fitness rises from 0.00765 to 0.00767.

Compared with C82U A111C A120G A145G C169G U176G, C82U A111C A120G A145G C169G U176A is higher in reverse-splicing fitness: 0.00408 for the first, 0.019 for the second.

Compared with C82U A111C A120G A145G C169G U176C, C82U A111C A120G U176C is lower in reverse-splicing fitness: 0.028 for the first, 0.02 for the second.

Compared with C82U A111C A120G U176A, C82U A111C A120G U176G is lower in reverse-splicing fitness: 0.0155 for the first, 0.00514 for the second.

Compared with C82U A111C A120G A145G C150A C169U U176A, C82U A111C A120G A145G C150A C169U U176G is lower in reverse-splicing fitness: 0.0158 for the first, 0.00519 for the second.

Compared with C82U A111C A120G A145G C150A C169U U176C, C82U A111C A120G A145U is higher in reverse-splicing fitness: 0.0153 for the first, 0.0159 for the second.

Going from C82U A111C A120G A145C to C82U A111C A120G A145G, the reverse-splicing fitness rises from 0.0118 to 0.0154.

Going from C82U A111C A120C C150G to C82U A111C A120C C150A, the reverse-splicing fitness rises from 0.00785 to 0.00985.

Compared with C82U A111C A120C C150U, C82U A111C A120G A145C C150U C169U U176G is lower in reverse-splicing fitness: 0.0192 for the first, 0.00401 for the second.

First: C82U A111C A120G A145C C150U C169U U176A
Second: C82U A111C A120G A145C C150U C169U U176C
The reverse-splicing fitness of the first is higher: 0.0137 for the first, 0.0072 for the second.

Compared with C82U A111C A120G A145G C169U U176C, C82U A111C A120G A145G C169U U176G is lower in reverse-splicing fitness: 0.0125 for the first, 0.00411 for the second.

Compared with C82U A111C A120G A145G C169U U176A, C82U A111C A120G A145C C169U U176C is lower in reverse-splicing fitness: 0.0161 for the first, 0.00886 for the second.

Compared with C82U A111C A120G A145C C169U U176A, C82U A111C A120G A145C C169U U176G is lower in reverse-splicing fitness: 0.0137 for the first, 0.00308 for the second.

First: C82U A111C A120C U176G
Second: C82U A111C A120C U176C
The reverse-splicing fitness of the first is lower: 0.00517 for the first, 0.0215 for the second.

Compared with C82U A111C A120C U176A, C82U A111C A120C C169U is lower in reverse-splicing fitness: 0.0154 for the first, 0.0127 for the second.

Compared with C82U A111C A120C C169G, C82U A111C A120C C169A is lower in reverse-splicing fitness: 0.00813 for the first, 0.00788 for the second.

Compared with C82U A111C A120G A145C C150A C169U U176C, C82U A111C A120G A145C C150A C169U U176A is higher in reverse-splicing fitness: 0.00704 for the first, 0.0166 for the second.

Going from C82U A111C A120G A145C C150A C169U U176G to C82U A111C A120C C150A C169A U176A, the reverse-splicing fitness rises from 0.00441 to 0.0186.

First: C82U A111C A120C C150A C169A U176G
Second: C82U A111C A120C C150A C169A U176C
The reverse-splicing fitness of the first is lower: 0.00712 for the first, 0.0136 for the second.

First: C82U A111C A120G C150U C169A
Second: C82U A111C A120G C150U C169U
The reverse-splicing fitness of the first is higher: 0.00877 for the first, 0.00841 for the second.

Going from C82U A111C A120G C150U C169G to C82U A111C A120G A145U C150A C169G U176C, the reverse-splicing fitness rises from 0.00848 to 0.0126.

Going from C82U A111C A120G A145U C150A C169G U176A to C82U A111C A120G A145U C150A C169G U176G, the reverse-splicing fitness falls from 0.0105 to 0.00431.

First: C82U A111C A120C C169U U176G
Second: C82U A111C A120C C169U U176A
The reverse-splicing fitness of the first is lower: 0.00583 for the first, 0.018 for the second.

First: C82U A111C A120C C169U U176C
Second: C82U A111C A120G C150U C169A U176A
The reverse-splicing fitness of the first is higher: 0.0145 for the first, 0.0142 for the second.

Variant C82U A111C A120G C150U C169A U176C has a reverse-splicing fitness of 0.0113.
